Measurements taken from patent publication US12539335B2, “Tricyclic polypeptide conjugated drug and use thereof” (CONJUSTAR (ZHUHAI) BIOLOGICS CO., LTD., priority 2021, dated 2026).
Where a name gives a salt, the structure may show the parent alone. Starred links: 1 amine or outer side, 2 acyl side, 3 side chain; linkers in the order of their positions; H or OH if unused. Positions of bridges follow the written chain, without caps; N, C: chain ends. Non-standard residues stand in square brackets, D forms with d. Residues, ends and D or L forms follow the SMILES beside them. Chains are numbered I, II in the order given. *: point of attachment. TATA = O=C(CC[*:1])N1CN(C(=O)CC[*:2])CN(C(=O)CC[*:3])C1; Dolaproine = CO[C@@H]([C@@H]1CCCN1)[C@@H](C)C(=O)O; Dil = CC[C@H](C)[C@H](NC)[C@@H](CC(=O)O)OC; 1Nal = N[C@@H](Cc1cccc2ccccc12)C(=O)O; X2 = O=C(CCCC(=O)[*:2])NCCC(=O)[*:1]; PABC = O=C(OCc1ccc(N[*:1])cc1)[*:2]; X1 = C[C@@H](N*)[C@@H](O)c1ccccc1; Hyp = O=C(O)[C@@H]1C[C@@H](O)CN1; hArg = N=C(N)NCCCC[C@H](N)C(=O)O; Cit = NC(=O)NCCC[C@H](N)C(=O)O; Pen = CC(C)(S)[C@H](N)C(=O)O; NMeV = CN[C@H](C(=O)O)C(C)C; Sar = CNCC(=O)O

Experiments:
NCI-H292 cells = experiment: In vitro anti-proliferative activity, CellTiter-Glo, NCI-H292; assay type: cell-based, Human; settings: NCI-H292, 72 h
Protocol: Test Example 2: In Vitro Anti-Proliferative Activity of the Compounds of the Present Invention on Nci-H292 and Mda-Mb-468 Cells
To investigate the effect of the compounds of the present invention on inhibiting cell proliferation by detecting the effect of the compounds on cell activity in vitro in tumor cell lines MDA-MB-468 and NCI-H292.
The tumor cell lines were cultured in a 37° C., no CO2 incubator and a 37° C., 5% CO2 incubator according to the culture conditions shown in Table 8, respectively. The cells were periodically passaged, and cells in a logarithmic growth phase were taken for plating.
Cells in a logarithmic growth phase were harvested and centrifuged at 1000 rpm for 3 min at room temperature. The supernatant was discarded, and the cells were resuspended in 5 mL of a culture medium. Then, 20 μL of the cell suspension was pipetted and mixed with trypan blue at 1:1 for staining for 3 min to detect cell viability and to count viable cells. The cell density was adjusted to 3000 cells/well. Then, 90 μL of the cell suspension was added to each culture plate well, and a cell-free culture medium was added to blank control wells. The culture plate was incubated overnight in a 37° C., no CO2, and 100% relative humidity incubator and a 37° C., 5% CO2, and 100% relative humidity incubator, respectively.
Preparation of a 400× compound stock plate: The compound to be tested was gradient diluted with DMSO from the highest to the lowest concentration.
Preparation of a 10× compound working solution: 78 μL of a cell culture medium was added to a V-bottomed 96-well plate, and 2 μL of the compound solution of each concentration was pipetted from the 400× compound stock plate into the cell culture medium in the 96-well plate. Then, 2 μL of DMSO was added to vehicle control and blank control. […]
The detection was performed according to the instructions of the Promega CellTiter-Glo Luminescent Cell Viability Assay kit (Promega-G7573). The luminescence signal was detected on the En Vision® Multi-mode Plate Reader (En Vision 2104-10). […]

[1] = Pharmacokinetic analysis in rat plasma; assay type: in vivo, SD rats; settings: Sprague-Dawley (SD), rat, SD rats, single IV 3 mg/kg, plasma
Protocol: Test Example 5: Pharmacokinetic Analysis of the Compounds of the Present Invention in Rat Plasma
To test the pharmacokinetics of the compounds of the present invention in SD rats.
The pharmacokinetic characteristics of the compound after intravenous injection were tested in rats according to a standard protocol. The compound to be tested was formulated into a clear solution using 25 mM L-histidine (pH=7) in 10% sucrose as a vehicle. Two rats were given a single intravenous injection of 3 mg/kg of the compound to be tested. Whole blood was collected at time points of 0.083, 0.25, 0.5, 1, 2, 4, 8, and 24 hours after administration to get plasma. The concentration of the compound of the present invention and the concentration of its potential metabolite MMAE were analyzed by the LC-MS/MS method, and the pharmacokinetic parameters were calculated by Phoenix WinNonlin software.

[2] = Metabolic stability in kidney S9, SD rats; assay type: in vitro ADME; settings: Sprague-Dawley (SD), rat
Protocol: Test Example 8: Metabolic Stability of the Compounds of the Present Invention in Kidney S9 from Mice, Rats, Cynomolgus Macaques, and Humans
To investigate the metabolic stability of the compounds of the present invention in kidney S9 from mice, rats, Cynomolgus macaques, and humans.
Materials: Kidney S9 from CD-1 mice, SD rats, Cynomolgus macaques, and humans were purchased from BioIVT or XenoTech LLC and stored in a −80° C. refrigerator.
Experimental procedure: Eight 96-well plates, designated T0, T5, T15, T30, T45, T60, Blank, and NCF60, were prepared. The first six incubation plates corresponded to reaction time points of 0, 5, 15, 30, 45, and 60 minutes, respectively. No test sample or control compound was added to the Blank plate.
The T0, T5, T15, T30, T45, and T60 plates were added with a 2 μL working solution of the test sample (10 mM of a solution of the compound to be tested in DMSO, diluted to 100 μM with 100% acetonitrile) and 100 μL of a S9 working solution (kidney S9 protein concentration of 1.0 mg/mL), and the Blank plate was only added with the S9 working solution. The above incubation plates were then placed in a 37° C. water bath for pre-incubation for about 10 minutes.
At the end of the pre-incubation, 98 μL of an auxiliary enzyme working solution was added to each sample well except the TO plate to start the reaction. […]

[3] = Stability in plasma, humans; assay type: in vitro ADME; settings: human, 37° C.
Protocol: Test Example 9: Stability Analysis of the Compounds of the Present Invention in Plasma from Different Species
To test the stability of the compounds of the present invention in plasma from SD rats, Cynomolgus macaques, and humans.
The corresponding incubation plates, including T0, T10, T30, T60, T120, and T240 incubation plates, were added with a 2 μL working solution of the compound to be tested (100 μM). Three parallel wells were prepared for each sample. Then, 98 μL of blank plasma from SD rats, Cynomolgus macaques, and humans was added to the corresponding incubation plates to which the working solution had been added. All samples were incubated in a 37° C. water bath. […] At the end of each incubation time point, the corresponding incubation plate was removed, added with stop buffer, precipitated, and centrifuged for 20 minutes. Then, 150 μL of the supernatant was analyzed by the LC-MS/MS method. The concentration of the compound to be tested in the sample was semi-quantitatively determined by the liquid chromatography-tandem mass spectrometry (LC-MS/MS) method.

## CC[C@H](C)[C@@H]([C@@H](CC(=O)N1CCC[C@H]1[C@H](OC)[C@@H](C)C(=O)N[C@H](C)[C@@H](O)c1ccccc1)OC)N(C)C(=O)[C@@H](NC(=O)[C@H](C(C)C)N(C)C(=O)OCc1ccc(NC(=O)[C@H](CCCNC(N)=O)NC(=O)[C@@H](NC(=O)CCCC(=O)NCCC(=O)N(C)CC(=O)N(C)CC(=O)N(C)CC(=O)N(C)CC(=O)N(C)CC(=O)N(C)CC(=O)N(C)CC(=O)N(C)CC(=O)N(C)CC(=O)N(C)CC(=O)N[C@H]2CCCCNC(=O)C[C@@H](C(=O)N[C@H]3CSCCC(=O)N4CN5CN(C4)C(=O)CCSC(C)(C)[C@H](NC(=O)[C@@H](CC(=O)O)NC(=O)[C@H](Cc4cccc6ccccc46)NC(=O)[C@@H]4CCCN4C3=O)C(=O)N[C@@H](CCSC)C(=O)N[C@@H](CCCCNC(=N)N)C(=O)N[C@@H](CC(=O)O)C(=O)N[C@@H](Cc3c[nH]c4ccccc34)C(=O)N[C@@H](CO)C(=O)N[C@@H]([C@@H](C)O)C(=O)N3CCC[C@H]3C(=O)N3C[C@H](O)C[C@H]3C(=O)N[C@@H](Cc3c[nH]c4ccccc34)C(=O)N[C@H](C(N)=O)CSCCC5=O)NC(=O)CN(C)C2=O)C(C)C)cc1)C(C)C [Acetate salt of PDC_2] (I: [Sar][Sar][Sar][Sar][Sar][Sar][Sar][Sar][Sar][Sar]K[Sar]DCP[1Nal][dD][Pen]M[hArg]DWSTP[Hyp]WC-NH2 / II: V[Cit][PABC][NMeV]V[Dil][Dolaproine]-X1; lactam I:11-I:13; linker I:14-I:18-I:28 via TATA; linker I:N-II:N via X2)
NCI-H292 cells
  IC50: 42.1 nM
  Maximum inhibition rate: 81.32%
  Minimum inhibition rate: 1.55%
[1]
  AUC(0-t): 4.4 µM·h
  C0: 6.9 µM
  clearance: 2.7 mL/min/kg
  half-life: 0.7 h
[1]; read-out: Vdss
  Vd: 0.1 L/kg
[2]
  half-life at 1 μM: > 2.42 h
  microsomal CLint at 1 μM: < 9.6 µL/min/mg
[3]
  half-life at 2 μM: > 9.63 h
